Assay results as given in the supplement of paper PMC9112550, “Optimization of the antimicrobial peptide Bac7 by deep mutational scanning” (BMC Biology, 2022).

These sequences were tested on Escherichia coli TOP10 (assay: shrunken log2 fold change of peptide-encoding DNA abundance (4.5 h post-induction vs induction); higher = less antimicrobial activity (less host growth inhibition)). Settings: time post-induction: 4.5 h; library: site-saturation at positions 5, 18, 19, 20.
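Further: peptides expressed intracellularly from a pBAD plasmid library in pooled LB shake-flask culture, induced with 0.3% L-arabinose, DNA abundance read by NGS, three biological replicates, DESeq2 with apeglm shrinkage.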

Sequence | shrunken log2 fold change
RRIRYRPPRLPRPRPRPTFYPRP | -0.803
RRIRQRPPRLPRPRPRPMLKPRP | -0.106
RRIRGRPPRLPRPRPRPGMIPRP | 0.309
RRIRFRPPRLPRPRPRPENWPRP | 0.0986
RRIRKRPPRLPRPRPRPGQFPRP | 0.00171
RRIRHRPPRLPRPRPRPISYPRP | 0.121
RRIRWRPPRLPRPRPRPWWRPRP | 0.0782
RRIRLRPPRLPRPRPRPLWRPRP | 0.785
RRIRSRPPRLPRPRPRPFGTPRP | 0.0399
RRIRARPPRLPRPRPRPICAPRP | 0.799
RRIRIRPPRLPRPRPRPTAWPRP | 0.152
RRIRVRPPRLPRPRPRPKPHPRP | 0.264
RRIRPRPPRLPRPRPRPRIPPRP | 0.243
RRIRARPPRLPRPRPRPDRRPRP | 0.086
RRIRIRPPRLPRPRPRPRGSPRP | -0.189
RRIRRRPPRLPRPRPRPHGWPRP | 0.784
RRIRYRPPRLPRPRPRPVVIPRP | -0.868
RRIRKRPPRLPRPRPRPMFHPRP | -0.144
RRIRMRPPRLPRPRPRPAPFPRP | 0.575
RRIRFRPPRLPRPRPRPRLKPRP | 0.0563
RRIRHRPPRLPRPRPRPKPHPRP | 0.172
RRIRPRPPRLPRPRPRPLQIPRP | -0.161
RRIRVRPPRLPRPRPRPLPLPRP | 0.0752
RRIRLRPPRLPRPRPRPERWPRP | 0.637
RRIRRRPPRLPRPRPRPYTFPRP | -0.0103

Sequence | shrunken log2 fold change
RRIRNRPPRLPRPRPRPMMGPRP | 0.0355
RRIRDRPPRLPRPRPRPARPPRP | 0.569
RRIRCRPPRLPRPRPRPWNRPRP | -0.162
RRIRLRPPRLPRPRPRPVIGPRP | -0.173
RRIRYRPPRLPRPRPRPLFEPRP | -0.414
RRIRRRPPRLPRPRPRPSTEPRP | 0.664
RRIRWRPPRLPRPRPRPYVEPRP | -0.446
RRIRIRPPRLPRPRPRPPALPRP | 0.0147
RRIRWRPPRLPRPRPRPPIQPRP | 0.277
RRIRSRPPRLPRPRPRPRWAPRP | 0.158
RRIRFRPPRLPRPRPRPDDRPRP | 0.00835
RRIRHRPPRLPRPRPRPIRDPRP | 0.0386
RRIRLRPPRLPRPRPRPSTHPRP | -0.59
RRIRKRPPRLPRPRPRPKFSPRP | 0.0774
RRIRGRPPRLPRPRPRPAGGPRP | 0.714
RRIRMRPPRLPRPRPRPNEAPRP | 0.326
RRIRMRPPRLPRPRPRPDKEPRP | -0.01
RRIRMRPPRLPRPRPRPVRYPRP | 0.64
RRIRRRPPRLPRPRPRPHYGPRP | -0.178
RRIRWRPPRLPRPRPRPKADPRP | 0.353
RRIRCRPPRLPRPRPRPMPMPRP | -0.174
RRIRKRPPRLPRPRPRPMNQPRP | -0.153
RRIRARPPRLPRPRPRPCIEPRP | 0.105
RRIRGRPPRLPRPRPRPHGMPRP | 0.0949
RRIRKRPPRLPRPRPRPTHGPRP | 0.547

Sequence | shrunken log2 fold change
RRIRHRPPRLPRPRPRPTFLPRP | -0.0769
RRIRYRPPRLPRPRPRPDLDPRP | -0.181
RRIRWRPPRLPRPRPRPSIWPRP | -0.353
RRIRTRPPRLPRPRPRPHNTPRP | -0.346
RRIRIRPPRLPRPRPRPYLDPRP | -1.02
RRIRMRPPRLPRPRPRPTSGPRP | 1.06
RRIRRRPPRLPRPRPRPNYNPRP | -0.556
RRIRLRPPRLPRPRPRPLPMPRP | 0.0573
RRIRMRPPRLPRPRPRPDVRPRP | 0.111
RRIRRRPPRLPRPRPRPCKDPRP | -0.0845
RRIRFRPPRLPRPRPRPSSLPRP | -0.856
RRIRIRPPRLPRPRPRPRCVPRP | -0.0162
RRIRIRPPRLPRPRPRPFHSPRP | -0.16
RRIRMRPPRLPRPRPRPLDRPRP | 0.816
RRIRNRPPRLPRPRPRPDTKPRP | -0.0152
RRIRGRPPRLPRPRPRPEAEPRP | 2.74
RRIRIRPPRLPRPRPRPMFAPRP | -0.00719
RRIRCRPPRLPRPRPRPLKPPRP | -0.225
RRIRLRPPRLPRPRPRPVNNPRP | -0.269
RRIRNRPPRLPRPRPRPVIYPRP | -0.301
RRIRKRPPRLPRPRPRPSGVPRP | 0.005
RRIRMRPPRLPRPRPRPGQRPRP | 1.08
RRIRERPPRLPRPRPRPIMVPRP | -0.023
RRIRLRPPRLPRPRPRPMTWPRP | -0.384
RRIRHRPPRLPRPRPRPPGWPRP | 0.424
